Results on 41 sequences are retold here after the supplement of paper PMC7877785.

± gives the uncertainty stated by the source.

This data set can be described thus: self-splicing fitness, log relative to wild type (ln ratio); higher = more splicing; Tetrahymena group I intron in knt gene, E. coli kanamycin selection, DiMSum; sequences stand for … in CUCUCU…GGAGGGAAAAGUUAUCAGGCAUGCACCUGGUAGCUAGUCUUUAAACCAAUAGAUUGCAUCGGUUUAAAAGGCAAGACCGUCAAAUUGCGGGAAAGGGGUCAACAGCCGUUCAGUACCAAGUCUCAGGGGAAACUUUGAGAUGGCCUUGCAAAGGGUAUGGUAAUAAGCUGACGGACAUGGUCCUAACCACGCAGCCAAGUCCUAAGUCAACAGAUCUUCUGUUGAUAUGGAUGCAGUUCACAGACUAAAUGUCGGUCGGGGAAGAUGUAUUCUUCUCAUAAGAUAUAGUCGGACCUCUCCUUAAUGGGAGCUAGCGGAUGAAGUGAUGCAACACUGGAGCCGCUGGGAACUAAUUUGUAUGCGAAAGUAUAUUGAUUAGUUUUGGAGUACUCGUGGUCG
The method, boiled down:
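Pooled colonies went to amplicon sequencing on an Illumina HiSeq 2500 after six replicate transformations. The plates were LB agar with 100 μg/mL carbenicillin, 50 μM IPTG and 0.2% rhamnose, with or without 25 μg/mL kanamycin, incubated overnight at 37°C or 30°C. The E. coli BL21(DE3) library had all eight P1ex-region intron nucleotides randomised, the intron placed in the knt kanamycin-resistance gene on pET-22b(+). DiMSum fitness is the error-weighted combination of replicate fold changes, kanamycin against none, normalised to wild type.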

In the case of CGCGAGCAAUAUUACGCACG, the “self-splicing fitness (ln)” value (37 °C) is -2.14 ± 0.46. The same measure, in the same setting: as for CGCGAGCAAUAUUACGCUAC, the figure is -2.08 ± 0.25; as for CGCGAGCAAUAUUACGGCCA, -1.68 ± 0.39. Regarding CGCGAGCAAUAUUACGGGCC, the “self-splicing fitness (ln)” value (30 °C) is -2.71 ± 0.27.

As for CGCGAGCAAUAUUACGGGCG, the “self-splicing fitness (ln)” value by setting is: (30 °C) -3.25 ± 0.24; (37 °C) -3.4 ± 0.42. Consider CGCGAGCAAUAUUACGGGUG, for which the “self-splicing fitness (ln)” value is -2.14 ± 0.077 (30 °C) and -1.68 ± 0.1 (37 °C). The like results for CGCGAGCAAUAUUACGUAGU were, in that order, -3.92 ± 0.18 and -2.14 ± 0.16. The corresponding values for CGCGAGCAAUAUUACGUCGC are -2.79 ± 0.24 and -3.48 ± 0.37. Take CGCGAGCAAUAUUACGUCGG: the “self-splicing fitness (ln)” value was -1.99 ± 0.086 (30 °C) and -1.16 ± 0.093 (37 °C). As to CGCGAGCAAUAUUACGUUAC, the “self-splicing fitness (ln)” value (30 °C) was -4.07 ± 0.28 and the “self-splicing fitness (ln)” value (37 °C) is -1.78 ± 0.33. On to CGCGAGCAAUAUUACGUUAU, for which the “self-splicing fitness (ln)” value by setting is: (30 °C) -3.91 ± 0.21; (37 °C) -3.49 ± 0.3. Take CGCUAGCAAUAUUACGACCG: the “self-splicing fitness (ln)” value runs as follows: (30 °C) -1.12 ± 0.11; (37 °C) -0.347 ± 0.15. The corresponding values for CGCUAGCAAUAUUACGAGGG are -2.59 ± 0.11 and -2.44 ± 0.17. The corresponding values for CGCUAGCAAUAUUACGAUGG are -0.85 ± 0.075 and 0.251 ± 0.083.

For CGCUAGCAAUAUUACGCAGU, the “self-splicing fitness (ln)” value is, setting by setting: (30 °C) -3.63 ± 0.2; (37 °C) -2.35 ± 0.2.

Take CGCUAGCAAUAUUACGCAUC: the “self-splicing fitness (ln)” value is -3.88 ± 0.36 (30 °C) and -2.66 ± 0.29 (37 °C).

For the sequence CGCUAGCAAUAUUACGCCUA, the “self-splicing fitness (ln)” value (30 °C) was -2.65 ± 0.25 and the “self-splicing fitness (ln)” value (37 °C) is -3.05 ± 0.28.

For CGCUAGCAAUAUUACGCGGA, the “self-splicing fitness (ln)” value reads like this: (30 °C) -3.21 ± 0.17; (37 °C) -1.73 ± 0.099. The like results for CGCUAGCAAUAUUACGCUAA were, in that order, -1.93 ± 0.22 and -1.53 ± 0.25. As for CGCUAGCAAUAUUACGCUAU, the “self-splicing fitness (ln)” value (37 °C) is -2.46 ± 0.27.

As for CGCUAGCAAUAUUACGCUUU, the “self-splicing fitness (ln)” value is -3.13 ± 0.18 (30 °C) and -2.32 ± 0.2 (37 °C).

With CGCUAGCAAUAUUACGGAAG, the “self-splicing fitness (ln)” value reads like this: (30 °C) -1.7 ± 0.16; (37 °C) 0.348 ± 0.17. As for CGCUAGCAAUAUUACGGAGA, the “self-splicing fitness (ln)” value (37 °C) was -2.2 ± 0.36.

Regarding CGCUAGCAAUAUUACGGAGG, the “self-splicing fitness (ln)” value (30 °C) was -1.78 ± 0.099 and the “self-splicing fitness (ln)” value (37 °C) was -0.655 ± 0.13. The corresponding values for CGCUAGCAAUAUUACGGCAU are -1.89 ± 0.093 and -0.622 ± 0.083. As for CGCUAGCAAUAUUACGGCCA, the “self-splicing fitness (ln)” value (30 °C) was -0.309 ± 0.16 and the “self-splicing fitness (ln)” value (37 °C) is -0.364 ± 0.2.

With CGCUAGCAAUAUUACGGUCC, the “self-splicing fitness (ln)” value was -1.48 ± 0.12 (30 °C) and -0.153 ± 0.15 (37 °C). The corresponding values for CGCUAGCAAUAUUACGGUUG are -2.07 ± 0.055 and -0.803 ± 0.072. The corresponding values for CGCUAGCAAUAUUACGGUUU are -1.69 ± 0.053 and -0.856 ± 0.074.

As for CGCUAGCAAUAUUACGUCGC, under “30 °C”, the “self-splicing fitness (ln)” value is -2.3 ± 0.33.

For the sequence CGCUAGCAAUAUUACGUCUU, where the note is “37 °C”, the “self-splicing fitness (ln)” value was -0.855 ± 0.16.

For the sequence CGCUAGCAAUAUUACGUGUC, the “self-splicing fitness (ln)” value by setting is: (30 °C) -2.34 ± 0.13; (37 °C) -2.78 ± 0.17. The corresponding values for CGCUAGCAAUAUUACGUUCA are -1.39 ± 0.12 and -1.68 ± 0.14. As to CGGAAGCAAUAUUACGACGC, the “self-splicing fitness (ln)” value (37 °C) is -0.637 ± 0.37. As for CGGAAGCAAUAUUACGACUU, the “self-splicing fitness (ln)” value was -1.28 ± 0.084 (30 °C) and 0.261 ± 0.089 (37 °C). The like results for CGGAAGCAAUAUUACGAGGU were, in that order, -4.22 ± 0.39 and -2.42 ± 0.35. Take CGGAAGCAAUAUUACGAUCU: the “self-splicing fitness (ln)” value (30 °C) is -1.11 ± 0.12 and the “self-splicing fitness (ln)” value (37 °C) is -0.942 ± 0.15. Turning to CGGAAGCAAUAUUACGCUAU, the “self-splicing fitness (ln)” value was -3.66 ± 0.25 (30 °C) and -2.13 ± 0.2 (37 °C). For the sequence CGGAAGCAAUAUUACGGAUA, the “self-splicing fitness (ln)” value (30 °C) is -3.36 ± 0.41 and the “self-splicing fitness (ln)” value (37 °C) was -1.81 ± 0.18.

For CGGAAGCAAUAUUACGGCAU, the “self-splicing fitness (ln)” value was -3.02 ± 0.34 (30 °C) and -1.55 ± 0.3 (37 °C). For CGGAAGCAAUAUUACGGCGA, the “self-splicing fitness (ln)” value (30 °C) is -0.522 ± 0.3.
